Laboratory results taken from patent EP4420676A1 (Medizinische Hochschule Hannover, dated 2024).

T1: murine DGCR2 expressed on HEK293T cells (mouse, UniProt P98154 25-548)
T1 construct: Transiently expressed on HEK293T cells from a vector with eGFP downstream of a P2A site; also called mouse DGCR2; murine antigen
T1 sequence: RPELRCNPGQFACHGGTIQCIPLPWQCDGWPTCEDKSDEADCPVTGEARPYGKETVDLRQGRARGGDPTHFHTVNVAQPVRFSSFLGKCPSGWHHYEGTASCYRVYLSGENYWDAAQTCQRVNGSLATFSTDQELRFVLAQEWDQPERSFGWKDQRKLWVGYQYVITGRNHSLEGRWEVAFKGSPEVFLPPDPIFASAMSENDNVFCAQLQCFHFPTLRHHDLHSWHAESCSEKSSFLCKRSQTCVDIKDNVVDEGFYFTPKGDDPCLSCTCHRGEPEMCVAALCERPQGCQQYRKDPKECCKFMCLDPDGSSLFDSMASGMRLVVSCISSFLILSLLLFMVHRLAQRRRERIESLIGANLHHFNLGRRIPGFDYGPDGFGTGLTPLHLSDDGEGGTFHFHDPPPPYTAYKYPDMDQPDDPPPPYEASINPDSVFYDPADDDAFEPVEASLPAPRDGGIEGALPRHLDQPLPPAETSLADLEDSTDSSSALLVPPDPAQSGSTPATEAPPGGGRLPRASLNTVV

T2: human DGCR2 expressed on HEK293T cells (human, UniProt P98153 21-550)
T2 construct: Transiently expressed on HEK293T cells from a vector with eGFP downstream of a P2A site; also called human antigen; DiGeorge Syndrom Critical Region 2
T2 sequence: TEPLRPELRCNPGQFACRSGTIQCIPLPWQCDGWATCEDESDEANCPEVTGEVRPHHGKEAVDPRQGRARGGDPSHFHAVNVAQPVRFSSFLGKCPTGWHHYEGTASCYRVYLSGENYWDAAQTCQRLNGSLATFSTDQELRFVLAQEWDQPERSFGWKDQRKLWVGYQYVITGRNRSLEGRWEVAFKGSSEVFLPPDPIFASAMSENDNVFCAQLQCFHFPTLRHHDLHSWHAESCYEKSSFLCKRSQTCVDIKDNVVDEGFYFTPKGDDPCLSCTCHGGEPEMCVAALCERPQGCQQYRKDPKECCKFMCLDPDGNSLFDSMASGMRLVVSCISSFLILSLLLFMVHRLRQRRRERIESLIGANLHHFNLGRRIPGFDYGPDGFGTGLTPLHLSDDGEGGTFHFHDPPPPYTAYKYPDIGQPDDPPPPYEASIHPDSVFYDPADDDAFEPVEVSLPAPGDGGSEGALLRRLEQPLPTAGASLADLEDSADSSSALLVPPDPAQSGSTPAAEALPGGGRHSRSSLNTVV


Key:
[1] = target: T1, murine DGCR2 expressed on HEK293T cells; test: flow cytometry, soluble scFv on transfected HEK293T cells, anti-His PE
[2] = target: T2, human DGCR2 expressed on HEK293T cells; test: flow cytometry, soluble scFv on transfected HEK293T cells (figure legend)
[3] = target: T1, murine DGCR2 expressed on HEK293T cells; test: as above

| Binder | binding result [1] | binding result [2] | binding result [3] |
| --- | --- | --- | --- |
| tpi010-A5 scFv (scFv, Soluble scFv produced in E. coli) scFv: EVQLVESGGGLVQPGGSLRLSCAASGFTVSSNYMSWVRQAPGKGLEWVSVIYSGGSTYYADSVKGRFTISRDNAKNSLYLQMNSLRAEDTAVYYCARGWTTFDYWGQGTLVTVSSGSASAPKLEEGEFSEARVQAVLTQPPSLSVSPRQTVTITCSGDQLGDRYVSWYQQKPGQSPMLVIYQDDRRPSGVPERFSGSNSGNTATLTIGGTQAMDQADYYCQTWDNSPVVFGGGTKLTVLGQPKAAPSVTLFPPSSAAAGSEQKLISEEDLSHHHHHH | binds | binds | – |
| UK018-G3 scFv (scFv, Soluble scFv produced in E. coli) scFv: QVQLVQSGGGVVQPGRSLRLSCAASGFTFSSYGMHWVRQAPGKGLEWVAVISYDGSNKYYADSVKGRFTISRDNSKNTLYLQMNSLRAEDTAVYYCAKDRGAVAGTDWYFDLWGRGTLVTVSSGSASAPKLEEGEFSEARVSSELTQDPAVSVALGQTVRITCQGDSLRSYYASWYQQKPGQAPVLVIYGKNNRPSGIPDRFSGSSSGNTASLTITGAQAEDEADYYCNSRDSSGNHVVFGGGTKLTVLGQPKAAPSVTLFPPSSAAAGSEQKLISEEDLSHHHHHH | – | binds | binds |
| UK018-G9 scFv (scFv, Soluble scFv produced in E. coli) scFv: QVQLVQSGGGLVQPGGSLRLSCAASGFTFSSYSMSWVRQAPGKGLEWVLGITRGGNTFYADSVTGRFTISRDISKNTVFLQMDSLRVEDTAIYYCAKDWTMSGINVFDTWGQGTLVTVSSGSASAPKLEEGEFSEARVQAVLTQPPSVSGSPGQSVTISCTGTSSDVGAYNRVSWYQQPPGTAPKLMIYEVNNRPSGVPDRFSGSKSGNTASLTISGLQAEDEADYYCSSSTTSSTYVFGTGTKVTVLGQPKANPTVTLFPPSSAAAGSEQKLISEEDLSHHHHHH | – | binds | binds |
